Test results taken from PMC3001161 (Molecular cell, 2010).

T1: Dcn1 potentiating neddylation (PONY) domain, Dcn1^P (budding yeast, UniProt Q12395 70-269)
T1 sequence (looked up): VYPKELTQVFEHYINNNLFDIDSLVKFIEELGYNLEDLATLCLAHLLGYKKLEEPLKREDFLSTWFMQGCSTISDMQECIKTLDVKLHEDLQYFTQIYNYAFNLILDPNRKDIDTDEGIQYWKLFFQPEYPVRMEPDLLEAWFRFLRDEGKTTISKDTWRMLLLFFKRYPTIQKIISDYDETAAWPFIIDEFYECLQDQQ

B1: isolated Cdc53 WHB subdomain (Cdc53^WHB) (domain or fragment, budding yeast, UniProt Q12018 730-815, looked up)
chain: NKRLTEDERIEKELNTERQIFLEACIVRIMKAKRNLPHTTLVNECIAQSHQRFNAKVSMVKRAIDSLIQKGYLQRGDDGESYAYLA

What was measured:
Experiment in all cases: ITC
[1] = target: Cdc53^C+-Hrt1^ΔR complex (budding yeast)
[2] = target: Cdc53^C+-Hrt1 complex (budding yeast) (UniProt Q12018)
[3] = target: B1
[4] = target: T1, Dcn1 potentiating neddylation (PONY) …

| Binder | stoichiometry N [1] | stoichiometry N [2] | stoichiometry N [3] | Kd [4] |
| --- | --- | --- | --- | --- |
| full-length Dcn1 (natural protein, budding yeast, UniProt Q12395 1-269, looked up) MSNNKIKRKDASPEQEAIESFTSLTKCDPKVSRKYLQRNHWNINYALNDYYDKEIGTFTDEVSTVAHPPVYPKELTQVFEHYINNNLFDIDSLVKFIEELGYNLEDLATLCLAHLLGYKKLEEPLKREDFLSTWFMQGCSTISDMQECIKTLDVKLHEDLQYFTQIYNYAFNLILDPNRKDIDTDEGIQYWKLFFQPEYPVRMEPDLLEAWFRFLRDEGKTTISKDTWRMLLLFFKRYPTIQKIISDYDETAAWPFIIDEFYECLQDQQ | 1 | 1 | 1 | – |
| Dcn1 potentiating neddylation (PONY) domain, Dcn1^P (domain or fragment) VYPKELTQVFEHYINNNLFDIDSLVKFIEELGYNLEDLATLCLAHLLGYKKLEEPLKREDFLSTWFMQGCSTISDMQECIKTLDVKLHEDLQYFTQIYNYAFNLILDPNRKDIDTDEGIQYWKLFFQPEYPVRMEPDLLEAWFRFLRDEGKTTISKDTWRMLLLFFKRYPTIQKIISDYDETAAWPFIIDEFYECLQDQQ | 1 | – | – | – |
| B1 | – | – | – | 227 nM |
